From patent publication US20220168434A1, “APPLICATION OF TRANSTHYRETIN IN ENTERING EYE AND PREPARING DROP” (YIZHOU (SHANGHAI) BIOLOGICAL MEDICINE CO, LTD., priority 2019, published 2022)

What was measured:
[1] = Protein content in vitreous body during two weeks of eye dropping (ELISA, anti-His tag antibody); type: in vivo, SD rats (Rattus norregicus); details: SD rats; protein not fused with TTR
Method: (§1) The purified TTR protein (at a concentration of 4 μmol/L) prepared in Example 1 after removal of endotoxin and bacteria was subject to treating healthy SD rats (Rattus norregicus) (6 weeks old) and New Zealand big-eared rabbits (Oryctolagus cuniculus) (2 months old, about 2.5 kg) by means of eye dropping, the left eye was the sample eye dropped with the protein, and the right eye was the blank control eye dropped with saline. The protein was administered 1-3 times per day at a dosage of 0.4-0.8 nmol. Two weeks later, the eyeball was removed and separated to obtain the vitreous body sample. It was preliminarily verified by western-blot method (FIG. 7A) that TTR can enter the vitreous cavity from the ocular surface.
(§2) The purified TTR-GFP protein (at a concentration of 4 μmol/L) prepared in Example 2 after removal of endotoxin and bacteria was subject to treating healthy SD rats (Rattus norregicus) (6 weeks old) and New Zealand big-eared rabbits (Oryctolagus cuniculus) (2 months old, about 2.5 kg) by means of eye dropping, the left eye was the sample eye dropped with the protein, and the right eye was the blank control eye dropped with saline. The protein was administered 1-3 times per day at a dosage of 0.4-0.8 nmol. […] The content of TTR-GFP in the vitreous body sample was determined by ELISA with the anti-His tag antibody as the primary antibody (Table 10 and 11). […]

[2] = as above; type: in vivo, New Zealand big-eared rabbits (Oryctolagus cuniculus); details: New Zealand big-ear rabbits; protein not fused with TTR
Method: as §1, §2

B1: Ovalbumin: Ovalbumin protein (UniProt Accession No.: P01012) not fused with TTR (protein, UniProt P01012 2-386, looked up)
Ovalbumin: GSIGAASMEFCFDVFKELKVHHANENIFYCPIAIMSALAMVYLGAKDSTRTQINKVVRFDKLPGFGDSIEAQCGTSVNVHSSLRDILNQITKPNDVYSFSLASRLYAEERYPILPEYLQCVKELYRGGLEPINFQTAADQARELINSWVESQTNGIIRNVLQPSSVDSQTAMVLVNAIVFKGLWEKAFKDEDTQAMPFRVTEQESKPVQMMYQIGLFRVASMASEKMKILELPFASGTMSMLVLLPDEVSGLEQLESIINFEKLTEWTSSNVMEERKIKVYLPRMKMEEKYNLTSVLMAMGITDVFSSSANLSGISSAESLKISQAVHAAHAEINEAGREVVGSAEAGVDAASVSEEFRADHPFLFCIKHIATNAVLFFGRCVSP
- entering the vitreous body after eye dropping (in words) [1]: did not enter
- entering the vitreous body after eye dropping (in words) [2]: did not enter
